From patent US7183065

Tests used:
[1] = molecular target: histone H1 peptide SEQ ID NO: 20 (human); assay: ELISA on coated peptide; rFab at 1.0, 3.0 and 10.0 µg/ml
[2] = molecular target: histone H1 peptide SEQ ID NO: 17 (human); assay: as above

B1: NANUC-2 (Fab)
chain 1: VKLLEQSGGGVVQPGKSLRLSCAASGFTFRNYGMHWVRQAPGKGLEWVAGISSDGRKKKYVDSVKGRFTISRDKSKNTLYLQMNSLRAEDTAVYYCAKLSRAGGFDIWGQGTMVTVSS
chain 2: AELTQSPGTLSLFPGERATLSCRASQRISTSFLAWYQQKPGQSPRLLIFDASTRAPGIPDRFSASWSGTDFTLTISRLEPEDFAVYYCQHYGGSPWTFGQGTKVEIK
Work on B1 yielded an OD405 [1] of 0.5 OD405 and an OD405 [2] of 0.25 OD405.
